Experimental findings from patent publication US20230399408A1 (AB THERAPEUTICS, published 2023) are described below.

The target in assay [1] is cMET (UniProt P08581). Nature of the assay: BLI (Probelife).
Assay [2] deals with c-MET-His tag protein (human) (UniProt P08581). Nature of the assay: titration ELISA, c-MET-His coated.
A further assay concerns the target EGFR (UniProt P00533). Description: separate experiment, method not restated (BLI in this example), EGFR binding.
Assay [3] concerns the target cMET (UniProt P08581). Nature of the assay: separate experiment, method not restated (BLI in this example), cMET binding.
Assay [4] addresses EGFR mutant C797S on BaF3 cells (UniProt P00533). Description: flow cytometry on EGFR mutant C797S-BaF3 cells, goat anti-human Fc-FITC. (In general: A flow cytometer gives signals particle by particle.)
Assay [5] has as its target EGFR on NCI-H1975 cells (human) (UniProt P00533). Description: flow cytometry on H1975 cells, dilutions 2.04e-4 to 400 nM, goat anti-human Fc-FITC; whole-cell binding, the cells also carry cMET.
Assay [6] concerns the target cMET on NCI-H1975 cells (human) (UniProt P08581). Description: flow cytometry competition on H1975.HGF cells, streptavidin-PE; ligand biotinylated HGF; fit value of a nearly flat control curve.
The target of assay [7] is EGFR on NCI-H1975 cells (human) (UniProt P00533). Nature of the assay: flow cytometry on H1975 cells, dilutions 2.04e-4 to 400 nM, goat anti-human Fc-FITC; fit value of a flat control curve, beyond the tested range.
For assay [8] the target is unchanged. Description: flow cytometry on H1975.HGF cells, goat anti-human Fc-FITC; fit value of a flat control curve; the drawn table is identical to that of FIG. 23B.
Assay [9] concerns the target EGFR mutant C797S on BaF3 cells (UniProt P00533). Description: flow cytometry competition on EGFR mutant C797S-BaF3 cells, streptavidin-PE; blocked ligand biotinylated EGF; fit value of a flat control curve.
Assay [10] shares this target. Description: flow cytometry on EGFR mutant C797S-BaF3 cells, goat anti-human Fc-FITC; fit value of a flat control curve; the drawn table is identical to that of FIG. 23C.
The target of assay [11] is cMET on NCI-H1975 cells (human) (UniProt P08581). Description: flow cytometry competition on H1975 cells, streptavidin-PE; blocked ligand biotinylated HGF; fit value of a nearly flat control curve (about 6500 to 6200).
Chain of cMET on NCI-H1975 cells (human) (P08581 25-1390): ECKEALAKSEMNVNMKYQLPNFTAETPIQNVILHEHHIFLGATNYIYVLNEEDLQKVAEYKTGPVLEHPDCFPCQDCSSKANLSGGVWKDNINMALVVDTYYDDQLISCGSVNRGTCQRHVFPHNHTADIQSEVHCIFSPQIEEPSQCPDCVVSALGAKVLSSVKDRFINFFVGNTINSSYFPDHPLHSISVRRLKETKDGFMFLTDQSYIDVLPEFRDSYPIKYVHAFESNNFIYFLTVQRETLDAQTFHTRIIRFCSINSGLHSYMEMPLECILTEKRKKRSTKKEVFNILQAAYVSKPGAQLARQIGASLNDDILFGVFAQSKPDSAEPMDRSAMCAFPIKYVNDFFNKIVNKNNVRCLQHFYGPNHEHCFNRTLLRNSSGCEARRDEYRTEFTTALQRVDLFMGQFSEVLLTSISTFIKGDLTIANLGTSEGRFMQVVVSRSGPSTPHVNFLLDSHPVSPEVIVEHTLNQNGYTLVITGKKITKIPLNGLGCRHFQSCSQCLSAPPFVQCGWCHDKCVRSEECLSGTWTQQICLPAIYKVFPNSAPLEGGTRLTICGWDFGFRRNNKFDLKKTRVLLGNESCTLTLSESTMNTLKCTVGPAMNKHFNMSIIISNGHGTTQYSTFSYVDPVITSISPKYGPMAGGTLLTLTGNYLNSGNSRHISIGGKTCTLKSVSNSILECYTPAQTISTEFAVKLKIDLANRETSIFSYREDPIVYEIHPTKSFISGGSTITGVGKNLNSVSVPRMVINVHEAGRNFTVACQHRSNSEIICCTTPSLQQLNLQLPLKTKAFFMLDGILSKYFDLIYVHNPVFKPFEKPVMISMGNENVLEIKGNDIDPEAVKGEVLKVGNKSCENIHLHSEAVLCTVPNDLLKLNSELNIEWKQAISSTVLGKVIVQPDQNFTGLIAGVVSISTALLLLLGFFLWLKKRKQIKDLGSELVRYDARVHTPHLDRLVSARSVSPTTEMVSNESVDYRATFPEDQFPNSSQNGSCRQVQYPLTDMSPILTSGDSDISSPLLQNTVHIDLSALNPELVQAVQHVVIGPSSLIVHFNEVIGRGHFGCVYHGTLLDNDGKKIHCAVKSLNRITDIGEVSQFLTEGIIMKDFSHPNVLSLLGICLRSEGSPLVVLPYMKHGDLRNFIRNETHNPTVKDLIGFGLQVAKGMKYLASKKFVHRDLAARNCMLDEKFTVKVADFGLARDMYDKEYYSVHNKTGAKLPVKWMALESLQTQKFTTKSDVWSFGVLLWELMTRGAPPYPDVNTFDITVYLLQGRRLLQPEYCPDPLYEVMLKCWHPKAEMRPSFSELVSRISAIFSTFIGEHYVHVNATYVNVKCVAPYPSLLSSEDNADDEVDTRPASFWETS
Assay [12] deals with EGFR on NCI-H1975 cells (human) (UniProt P00533). Nature of the assay: flow cytometry competition on H1975.HGF cells, streptavidin-PE; blocked ligand biotinylated EGF; fit value of a control curve that rises instead of falling.
A further assay deals with T1, human cMET (human, UniProt P08581 25-932).
T1 construct: Coated antigen of the cross-reactivity ELISA; also called human antigen; anti-Hu
T1 sequence (P08581 25-932): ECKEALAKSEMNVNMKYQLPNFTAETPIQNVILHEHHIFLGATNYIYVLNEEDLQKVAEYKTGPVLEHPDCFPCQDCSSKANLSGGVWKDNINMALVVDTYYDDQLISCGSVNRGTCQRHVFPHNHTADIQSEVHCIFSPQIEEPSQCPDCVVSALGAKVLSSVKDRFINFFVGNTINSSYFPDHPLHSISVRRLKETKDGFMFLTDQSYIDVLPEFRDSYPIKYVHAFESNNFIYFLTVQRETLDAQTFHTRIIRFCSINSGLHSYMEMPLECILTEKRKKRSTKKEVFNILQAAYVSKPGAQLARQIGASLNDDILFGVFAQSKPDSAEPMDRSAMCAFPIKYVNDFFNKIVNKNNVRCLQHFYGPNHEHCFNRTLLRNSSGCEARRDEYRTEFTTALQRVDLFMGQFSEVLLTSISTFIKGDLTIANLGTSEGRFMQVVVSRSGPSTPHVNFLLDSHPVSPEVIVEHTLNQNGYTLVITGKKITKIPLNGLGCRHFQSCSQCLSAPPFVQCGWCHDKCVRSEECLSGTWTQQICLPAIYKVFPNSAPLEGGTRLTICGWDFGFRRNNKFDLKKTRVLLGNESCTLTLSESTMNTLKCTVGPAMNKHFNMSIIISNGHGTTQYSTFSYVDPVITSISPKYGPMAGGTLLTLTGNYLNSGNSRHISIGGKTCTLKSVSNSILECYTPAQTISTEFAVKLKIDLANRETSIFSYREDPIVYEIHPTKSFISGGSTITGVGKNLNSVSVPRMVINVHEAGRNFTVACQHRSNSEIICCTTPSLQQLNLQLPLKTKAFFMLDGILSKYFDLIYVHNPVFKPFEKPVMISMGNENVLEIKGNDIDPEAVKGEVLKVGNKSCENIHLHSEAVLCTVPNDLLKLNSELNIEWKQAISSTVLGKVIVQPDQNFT
Description: binding ELISA, plate coated with human cMET at 1 ug/mL, clone at 10 ug/mL, biotinylated anti-c-Myc 9E-10 and streptavidin detection. A general note: An ELISA detects its analyte on a solid surface through an enzyme-linked reagent.

Another assay addresses T2, c-MET-His tag protein (human, UniProt P08581 25-932).
T2 construct: also called cMET-HIS tagged; not shown: His tag
Description: BLI (Probelife Gator), cMET-His on HIS probe saturated with 1H1-cMET-VHH-Fc, second antibody at 5 ug/ml. The procedure:
Briefly, a baseline was established using HIS probes in Quantitation (Q) buffer (a phosphate buffered saline solution with bovine serum albumin to decrease non-specific and background signal). The antigen (cMET-HIS tagged) to the HIS probe was added in 5 μg/ml cMET solution in Q buffer. HIS probes in Q buffer were used to return to the baseline. […] Finally, the secondary antibody was associated through HIS Probes in 5 μg/ml of antibody diluted in Q buffer.

Chain of cMET (P08581 25-932): as above
Chain of c-MET-His tag protein (human) (P08581 25-932 limits assumed): as the sequence (P08581 25-932) above
T2 sequence (P08581 25-932 limits assumed): as the sequence (P08581 25-932) above
Description for human cMET: A high binding ELISA plate was coated with 1 μg/mL (diluted in 1×PBS) human or monkey antigens and kept at 4° C. overnight. On the next day, the plate was blocked with a blocking buffer (4% non-fat milk in 1×PBS) for 1 hour at 37° C. After blocking, the plate was washed three times with PBST. The antibody samples to be tested were diluted in PBS and then added to the corresponding wells (10 μg/mL). The plate was incubated at 37° C. at RT for 1 hour. After the incubation, the plate was washed three times with the PBST. Next, a secondary antibody (biotinylated anti-c-Myc antibody 9E-10, diluted at 1:500) was added to the wells and the plate was incubated at 37° C. at RT for 1 hour. The plate was then washed three times with PBST. Afterwards, streptavidin-RP, diluted at 1:1000, was added to each well and then the plate was incubated at 37° C. at RT for 1 hour. After the incubation, the plate was washed four times with PBST. After washing, the plate was developed by adding the Amplex reagent substrate and then the luminescent signal was measured at 530 nm and 590 nm in a SpectraMax plate reader.

With JNJ372 analog (bispecific antibody), the Kd in the assay with cMET [1] was 0.405 nM; in the assay with EGFR, 0.689 nM; with cMET [3], 0.432 nM. Besides, the EC50 came out at 4.89 ng/mL in [2] and 0.46 nM in assay [5]. For the same molecule, the half-maximal effective concentration (EC50 (read off the curve)) in assay [4] was found to be 3 nM.
For the molecule Neg.control (antibody), the half-maximal effective concentration (EC50) is 1.08 nM in [6]; 11100 nM in assay [7]; 26.4 nM in assay [8]; 0.0262 nM in [9]; 0.0262 nM in assay [10]; 0.112 nM in assay [11]. The molecule further returned an EC50 in [12] of 26.4 nM.

B1: 1A12 (VHH)
VHH: QVQLVESGGGLVQPGGSLRLSCAASGFTFNSYWMYWVRLAPGKGIEWVSATDTRGQNTYYTDSVKGRFTISRDNAKNMVSLQMNNLKSEDTAVYYCALGNRWGTFPNRGPGTLVTVSS
notes: it is not the VHH-Fc fusion m11; also called cMET-1A12; clone 1A12
In the case of B1, the binding result in the assay with human cMET is on record as “binds”.

B2: cMET-1A12 VHH-Fc (Fc fusion)
chain: QVQLVESGGGLVQPGGSLRLSCAASGFTFNSYWMYWVRLAPGKGIEWVSATDTRGQNTYYTDSVKGRFTISRDNAKNMVSLQMNNLKSEDTAVYYCALGNRWGTFPNRGPGTLVTVSS
notes: not shown: hinge and Fc of the VHH-Fc
In the case of B2, in the assay with c-MET-His tag protein, the binding result was “binds”.

The Kd is the equilibrium constant for the complex coming apart. The EC50 is the concentration that produces a half-maximal response. A high value points to weaker potency. For orientation: EC50 (read off the curve) means the concentration that produces a half-maximal response. High values mean a less potent agent, low ones a more potent agent.
